T1: PTPN13_4, Q12923
T1 sequence (Q12923 1783-1878, limits assumed, looked up): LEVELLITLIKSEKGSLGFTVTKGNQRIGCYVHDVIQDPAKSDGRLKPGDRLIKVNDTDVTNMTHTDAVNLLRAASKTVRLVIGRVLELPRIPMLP

T2: GRIP1_1, Q9Y3R0
T2 sequence (Q9Y3R0 48-146, limits assumed, looked up): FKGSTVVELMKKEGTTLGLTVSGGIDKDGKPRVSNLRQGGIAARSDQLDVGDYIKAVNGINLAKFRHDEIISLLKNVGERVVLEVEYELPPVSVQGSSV

T3: APBA3_2, O96018
T3 sequence (O96018 480-570, limits assumed, looked up): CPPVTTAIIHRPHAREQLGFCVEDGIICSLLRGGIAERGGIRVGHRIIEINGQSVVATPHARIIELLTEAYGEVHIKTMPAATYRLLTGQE

T4: NHERF1_2, O14745
T4 sequence (O14745 149-244, limits assumed, looked up): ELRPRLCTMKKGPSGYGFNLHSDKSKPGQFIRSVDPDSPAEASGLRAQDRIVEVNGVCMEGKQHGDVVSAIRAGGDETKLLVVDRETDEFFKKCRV

T5: PDLIM3, Q53GG5
T5 sequence (Q53GG5 1-94, limits assumed, looked up): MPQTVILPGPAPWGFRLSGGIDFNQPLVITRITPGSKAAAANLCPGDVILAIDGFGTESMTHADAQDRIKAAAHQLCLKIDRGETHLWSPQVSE

T6: PDZD7_2, Q9H5P4
T6 sequence (Q9H5P4 205-303, limits assumed, looked up): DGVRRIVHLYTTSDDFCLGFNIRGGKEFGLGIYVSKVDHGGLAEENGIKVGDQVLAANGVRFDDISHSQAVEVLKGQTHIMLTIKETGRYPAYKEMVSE

T7: PTPN4, P29074
T7 sequence (P29074 512-599, limits assumed, looked up): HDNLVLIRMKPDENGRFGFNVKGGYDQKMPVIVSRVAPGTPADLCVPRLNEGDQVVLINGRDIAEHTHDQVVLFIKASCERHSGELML

T8: RGS12, O14924
T8 sequence (O14924 17-108, limits assumed, looked up): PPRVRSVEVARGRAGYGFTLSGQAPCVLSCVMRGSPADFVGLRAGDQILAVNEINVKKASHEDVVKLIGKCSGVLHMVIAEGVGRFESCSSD

T9: MLLT4, P55196
T9 sequence (P55196 1002-1103, limits assumed, looked up): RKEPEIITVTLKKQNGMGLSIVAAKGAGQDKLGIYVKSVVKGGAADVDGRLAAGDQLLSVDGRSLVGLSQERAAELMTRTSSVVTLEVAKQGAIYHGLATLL

T10: LNX2_4, Q8N448
T10 sequence (Q8N448 595-690, limits assumed, looked up): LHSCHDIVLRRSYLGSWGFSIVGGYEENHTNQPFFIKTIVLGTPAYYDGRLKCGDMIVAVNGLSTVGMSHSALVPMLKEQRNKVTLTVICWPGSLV

T11: MAGI2_1, Q86UL8
T11 sequence (Q86UL8 12-111, limits assumed, looked up): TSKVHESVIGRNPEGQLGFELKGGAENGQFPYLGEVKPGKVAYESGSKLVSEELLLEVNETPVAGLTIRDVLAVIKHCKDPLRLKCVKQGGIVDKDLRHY

T12: PDZD2_1, O15018
T12 sequence (O15018 80-192, limits assumed, looked up): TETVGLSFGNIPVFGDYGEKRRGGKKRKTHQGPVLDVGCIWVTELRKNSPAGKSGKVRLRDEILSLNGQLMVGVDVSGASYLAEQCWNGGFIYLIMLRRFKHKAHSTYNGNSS

T13: DVL1, O14640
T13 sequence (O14640 246-333, limits assumed, looked up): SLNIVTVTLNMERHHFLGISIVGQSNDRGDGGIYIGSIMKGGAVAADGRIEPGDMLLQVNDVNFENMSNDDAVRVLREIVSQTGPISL


Legend:
Assay in all cases: holdup assay
Parameters in all cases: key: below the threshold = too weak to quantify, mostly under pKd 3.1 to 4
Conditions in all cases: plain residues with an end cap or a label only (N-terminal biotin on a linker: ttds)
PTPN13_4, Q12923 = target: T1, PTPN13_4, Q12923
RIMS1, Q86UR5 = target: RIMS1, Q86UR5
GRIP1_1, Q9Y3R0 = target: T2, GRIP1_1, Q9Y3R0
DLG2_1, Q15700 = target: DLG2_1, Q15700
APBA3_2, O96018 = target: T3, APBA3_2, O96018
MAGI3_6, Q5TCQ9 = target: MAGI3_6, Q5TCQ9
NHERF1_2, O14745 = target: T4, NHERF1_2, O14745
PARD3B_3, Q8TEW8 = target: PARD3B_3, Q8TEW8
PDLIM4, P50479 = target: PDLIM4, P50479
MAGI3_3, Q5TCQ9 = target: MAGI3_3, Q5TCQ9
TJP1_1, Q07157 = target: TJP1_1, Q07157
PDLIM3, Q53GG5 = target: T5, PDLIM3, Q53GG5
PDZRN4_2, Q6ZMN7 = target: PDZRN4_2, Q6ZMN7
PDZD7_2, Q9H5P4 = target: T6, PDZD7_2, Q9H5P4
PTPN4, P29074 = target: T7, PTPN4, P29074
SDCBP_1, O00560 = target: SDCBP_1, O00560
RGS3, P49796-9 = target: RGS3, P49796-9
RGS12, O14924 = target: T8, RGS12, O14924
MLLT4, P55196 = target: T9, MLLT4, P55196
MAGI1_3, Q96QZ7 = target: MAGI1_3, Q96QZ7
LNX2_4, Q8N448 = target: T10, LNX2_4, Q8N448
AHNAK2, Q8IVF2 = target: AHNAK2, Q8IVF2
MAGI2_1, Q86UL8 = target: T11, MAGI2_1, Q86UL8
PDZD2_1, O15018 = target: T12, PDZD2_1, O15018
DVL1, O14640 = target: T13, DVL1, O14640

Sequence of RIMS1, Q86UR5 (Q86UR5 584-692): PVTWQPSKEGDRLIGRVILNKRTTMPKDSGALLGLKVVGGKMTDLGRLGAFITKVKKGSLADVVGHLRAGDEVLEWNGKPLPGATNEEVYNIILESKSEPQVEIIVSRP
Sequence of PDZRN4_2, Q6ZMN7 (Q6ZMN7 389-498): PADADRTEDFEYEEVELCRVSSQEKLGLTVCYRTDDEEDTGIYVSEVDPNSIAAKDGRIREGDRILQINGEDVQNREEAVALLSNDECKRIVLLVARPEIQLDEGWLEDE
Sequence of TJP1_1, Q07157 (Q07157 18-120): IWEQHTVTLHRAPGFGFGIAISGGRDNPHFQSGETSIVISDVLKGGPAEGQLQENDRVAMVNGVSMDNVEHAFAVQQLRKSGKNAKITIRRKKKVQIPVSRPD
Sequence of AHNAK2, Q8IVF2 (Q8IVF2 108-193): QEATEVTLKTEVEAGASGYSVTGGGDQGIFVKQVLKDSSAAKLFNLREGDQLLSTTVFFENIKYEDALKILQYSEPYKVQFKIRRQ
Sequence of MAGI1_3, Q96QZ7 (Q96QZ7 638-725): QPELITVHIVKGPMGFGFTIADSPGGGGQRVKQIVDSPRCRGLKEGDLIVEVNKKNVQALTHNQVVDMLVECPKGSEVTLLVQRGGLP
Sequence of PARD3B_3, Q8TEW8 (Q8TEW8 490-594): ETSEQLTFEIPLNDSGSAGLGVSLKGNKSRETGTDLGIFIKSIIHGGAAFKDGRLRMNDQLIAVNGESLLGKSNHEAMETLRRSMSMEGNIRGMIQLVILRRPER
Sequence of SDCBP_1, O00560 (O00560 111-198): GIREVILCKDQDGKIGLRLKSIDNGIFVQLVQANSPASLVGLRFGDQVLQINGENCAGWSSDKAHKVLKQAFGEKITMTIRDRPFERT
Sequence of MAGI3_3, Q5TCQ9 (Q5TCQ9 572-655): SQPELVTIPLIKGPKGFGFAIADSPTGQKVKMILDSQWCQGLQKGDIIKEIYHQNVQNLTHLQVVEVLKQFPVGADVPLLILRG
Sequence of MAGI3_6, Q5TCQ9 (Q5TCQ9 1014-1103): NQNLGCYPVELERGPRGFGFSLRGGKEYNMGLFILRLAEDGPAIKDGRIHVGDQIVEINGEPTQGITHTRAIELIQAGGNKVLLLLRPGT
Sequence of PDLIM4, P50479 (P50479 1-83): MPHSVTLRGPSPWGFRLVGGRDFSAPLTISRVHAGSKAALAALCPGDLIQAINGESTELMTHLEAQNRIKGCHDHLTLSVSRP
Sequence of RGS3, P49796-9 (P49796 other isoform, or with tags, fused parts or gaps): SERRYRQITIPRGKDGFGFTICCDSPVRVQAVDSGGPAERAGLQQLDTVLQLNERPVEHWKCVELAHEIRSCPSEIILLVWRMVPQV

| Binder | pKd (PTPN13_4, Q12923) | pKd (RIMS1, Q86UR5) | pKd (GRIP1_1, Q9Y3R0) | pKd (DLG2_1, Q15700) | pKd (APBA3_2, O96018) | pKd (MAGI3_6, Q5TCQ9) | pKd (NHERF1_2, O14745) | pKd (PARD3B_3, Q8TEW8) | pKd (PDLIM4, P50479) | pKd (MAGI3_3, Q5TCQ9) | pKd (TJP1_1, Q07157) | pKd (PDLIM3, Q53GG5) | pKd (PDZRN4_2, Q6ZMN7) | pKd (PDZD7_2, Q9H5P4) | pKd (PTPN4, P29074) | pKd (SDCBP_1, O00560) | pKd (RGS3, P49796-9) | pKd (RGS12, O14924) | pKd (MLLT4, P55196) | pKd (MAGI1_3, Q96QZ7) | other results |
| --- | --- | --- | --- | --- | --- | --- | --- | --- | --- | --- | --- | --- | --- | --- | --- | --- | --- | --- | --- | --- | --- |
| SSIDLWETAL [SLC15A5, A6NIM6] | below the threshold | below the threshold | below the threshold | below the threshold | below the threshold | 4.89 | below the threshold | below the threshold | below the threshold | below the threshold | below the threshold | below the threshold | below the threshold | below the threshold | 4.84 | below the threshold | below the threshold | below the threshold | below the threshold | below the threshold | pKd (LNX2_4, Q8N448): 5.03; pKd (AHNAK2, Q8IVF2): below the threshold; pKd (MAGI2_1, Q86UL8): below the threshold; pKd (PDZD2_1, O15018): below the threshold; pKd (DVL1, O14640): below the threshold |
| SRSRRRETAL [HPV33-E6, P06427] | below the threshold | below the threshold | below the threshold | 5.13 | 4.28 | below the threshold | below the threshold | below the threshold | below the threshold | below the threshold | below the threshold | below the threshold | below the threshold | 4.42 | 5.02 | below the threshold | below the threshold | 4.5 | below the threshold | below the threshold | pKd (LNX2_4, Q8N448): below the threshold; pKd (AHNAK2, Q8IVF2): below the threshold; pKd (MAGI2_1, Q86UL8): below the threshold; pKd (PDZD2_1, O15018): below the threshold; pKd (DVL1, O14640): 4.23 |
| SHSSKGETAV [FZD7, O75084] | below the threshold | below the threshold | below the threshold | 4.38 | below the threshold | 4.71 | below the threshold | below the threshold | below the threshold | 4.54 | below the threshold | below the threshold | below the threshold | below the threshold | below the threshold | below the threshold | below the threshold | below the threshold | below the threshold | below the threshold | pKd (LNX2_4, Q8N448): below the threshold; pKd (AHNAK2, Q8IVF2): 4.41; pKd (MAGI2_1, Q86UL8): 4.39; pKd (PDZD2_1, O15018): below the threshold; pKd (DVL1, O14640): below the threshold |
